Test results as given in US20240147984A1 (SYNKLINO A S, published 2024).

Key:
Assay in all cases: cell-based or functional assay
US28 [1] = target: T1, US28 (human cytomegalovirus, UniProt P69332 1-354)
T1 sequence: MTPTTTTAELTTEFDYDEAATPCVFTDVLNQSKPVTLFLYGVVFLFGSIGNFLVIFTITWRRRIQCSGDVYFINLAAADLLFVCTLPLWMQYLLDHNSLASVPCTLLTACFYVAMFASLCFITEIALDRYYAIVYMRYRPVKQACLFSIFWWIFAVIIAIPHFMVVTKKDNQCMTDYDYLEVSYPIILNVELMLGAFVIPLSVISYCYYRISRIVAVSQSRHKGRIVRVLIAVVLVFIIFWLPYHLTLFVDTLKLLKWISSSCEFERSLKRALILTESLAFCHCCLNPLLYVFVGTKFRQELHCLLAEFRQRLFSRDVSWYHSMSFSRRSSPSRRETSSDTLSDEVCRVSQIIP

CX3CR1 = target: T2, CX3CR1 (human, UniProt P49238 1-355)
T2 sequence: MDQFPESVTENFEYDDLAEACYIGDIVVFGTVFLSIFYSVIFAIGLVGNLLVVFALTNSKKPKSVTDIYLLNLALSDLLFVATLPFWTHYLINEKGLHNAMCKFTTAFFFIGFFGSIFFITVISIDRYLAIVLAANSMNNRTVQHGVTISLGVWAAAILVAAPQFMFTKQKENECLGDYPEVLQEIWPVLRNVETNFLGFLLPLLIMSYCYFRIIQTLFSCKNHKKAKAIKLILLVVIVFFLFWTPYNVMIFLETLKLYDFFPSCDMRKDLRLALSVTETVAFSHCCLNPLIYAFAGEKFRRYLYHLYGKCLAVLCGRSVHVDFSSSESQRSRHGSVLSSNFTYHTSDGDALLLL

US28 [2] = target: T1, US28; remark: listed apart in the source

B1: SYN001 (other)
chain: MQHHGVTKCNITCSKMTSKIPVALLIHYQQNQASCGKRAIILETRQHRLACADPKEQWVKDAMQHLDRQAAALTRNRQPRGWEQLEQSGYPVQRLVALYLAARLSWNQVDQVIRNALASPGSGGDLGEAIREQPEQARLALTLAAAESERFVRQGTGNDEAGAASGPADSGDALLERNYPTGAEFLGDGGDISFSTRGTQNWTVERLLQAHRQLEERGYVFVGYHGTFLEAAQSIVFGGVRARSQDLDAIWRGFYIAGDPALAYGYAQDQEPDARGRIRNGALLRVYVPRSSLPGFYRTGLTLAAPEAAGEVERLIGHPLPLRLDAITGPEEEGGRLETILGWPLAERTVVIPSAIPTDPRNVGGDLDPSSIPDKEQAISALPDYASQPGKPPKDE
In the case of B1, the “Log IC50, cell killing assay” value (US28 [1]) is reported as -10.7 log IC50; concentration unit not printed, the “Selectivity Ratio US28/CX3CR1 (cell killing IC50)” value (US28 [1]) is reported as 718 ratio and the “Log IC50, cell killing assay” value (CX3CR1) is reported as -7.82 log IC50; concentration unit not printed. The “EC50 (log), potency assay; SYN001 1 mg/L, 0 min in perfusate at 37 C” value (US28 [2]) was -9.95 log EC50; concentration unit not printed, the “EC50 (log), potency assay; SYN001 1 mg/L, 15 min in perfusate at 37 C” value (US28 [2]) was -9.95 log EC50; concentration unit not printed and the “EC50 (log), potency assay; SYN001 1 mg/L, 180 min in perfusate at 37 C” value (US28 [2]) was -10 log EC50; concentration unit not printed. For the same binder, the “EC50 (log), potency assay; SYN001 1 mg/L, 300 min in perfusate at 37 C” value (US28 [2]) was -9.93 log EC50; concentration unit not printed.
